The source of these data is patent publication US20040220079A1.

The assay addresses M2pd (modified M2 containing amino acids from Ala-8p to Ala326) (human) (UniProt P56817). Briefly: cell-based or functional assay.

Sequence of M2pd (modified M2 containing amino acids from Ala-8p to Ala326) (human) (P56817 22-501 limits assumed): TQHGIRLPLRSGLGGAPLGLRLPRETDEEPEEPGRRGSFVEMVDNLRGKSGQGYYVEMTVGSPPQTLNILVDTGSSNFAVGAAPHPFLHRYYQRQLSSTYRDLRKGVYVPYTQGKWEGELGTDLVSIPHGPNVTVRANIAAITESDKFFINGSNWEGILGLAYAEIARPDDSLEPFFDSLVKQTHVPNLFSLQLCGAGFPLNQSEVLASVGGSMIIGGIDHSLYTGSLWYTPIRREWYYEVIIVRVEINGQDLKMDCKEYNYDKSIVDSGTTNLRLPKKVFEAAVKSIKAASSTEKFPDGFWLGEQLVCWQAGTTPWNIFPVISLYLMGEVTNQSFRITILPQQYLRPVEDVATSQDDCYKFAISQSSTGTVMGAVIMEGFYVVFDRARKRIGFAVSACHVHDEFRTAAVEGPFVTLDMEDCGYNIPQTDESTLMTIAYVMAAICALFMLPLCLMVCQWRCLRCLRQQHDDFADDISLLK

Pepstatin A (peptide): the IC50 of inhibition of enzyme activity amounted to 300 µM.
